US11168306 (University of California, dated 2021)
Read-outs that look alike come from different tables or passages of the source. Ends that are not written are not given here. * marks the point of attachment. Butanoyl(4-N3) = [N-]=[N+]=NCCCC(=O)*; Pent4ynoyl = C#CCCC(=O)*

Key:
[1] = target: T1, prostate-specific membrane antigen (PSMA), dimeric form (UniProt Q04609 44-750, limits assumed); experiment: electrochemical impedance spectroscopy, virus-PEDOT film, Hill fit of ΔR/Ro against PSMA concentration; phage-2 alone, not wrapped with KCS-1
T1 construct: Purified protein, construct not described; also called dimeric PSMA
Description: (§1) Biosensing with Virus-PEDOT Films. To explore whether these wrapped virus particles could be exploited to create virus-electrode biosensors with a higher sensitivity for PSMA, films of PEDOT were prepared on gold electrodes by electropolymerization in the presence of phage-2 (FIG. 2B). The PEDOT films formed in solution during electropolymerization associate with the negatively charged perchlorate ions from the electrolyte solution as it is deposited onto the gold electrode.[30] Polymerization of EDOT in the presence of negatively charged phage particles leads to incorporation of virus particles into the polymeric film as counterion dopants due to electrostatic interactions.[21] […] SEM imaging confirms incorporation of phage into the bioaffinity matrix; both filament-like and less extended features having dimensions consistent with phage integrated as rope-like bundles into the polymer at various angles to the film (FIGS. 4B-4C) were observed. The $KCS$-1 wrapper was then applied in vitro simply by exposing the resultant phage-2 film for a short time to an aqueous solution of the wrapper. For the biosensing measurements, only the highest affinity ligand combination of phage-2 wrapped with $KCS$-1 was used, and it was studied in comparison to phage-2 films.
(§2) where $Y=\Delta R/R_o$, [L] is the ligand concentration, and n is the Hill coefficient.[31] […]

[2] = target: T2, bovine serum albumin (bovine, UniProt P02769 25-607); experiment: phage ELISA on BSA, anti-M13-HRP detection
T2 construct: also called BSA

[3] = target: T1, prostate-specific membrane antigen …; experiment: phage ELISA, PSMA dimer coated on the plate, [PSMA] = 11.1 nM, phage titrated, anti-M13-HRP detection
Description: (§3) In a phage-based ELISA, specific wells of a 96-well microtiter plate (Nunc Maxisorp) were coated with 100 µL/well of a solution of PSMA (5.56 or 11.1 nM) monomer or dimer protein diluted in PBS. The plate was incubated for 1 h on a shaker at room temperature. The coating solution was removed, and the wells were blocked with 320 µL/well of 0.2% w/v solution of BSA in PBS for 30 min, and washed three times with 300 µL/well of wash buffer PT (0.05% TWEEN-20 in PBS). […] The wells on the ELISA plate were then incubated with the phage samples (100 µL/well) for 1 h. The wells were washed five times with PT and then incubated with horseradish-peroxidase-conjugated anti-M13 antibody (100 µL/well, 1:5000 dilution in PBT) for 30 min. The wells were washed three times with PT, and two times with PBS. The plate was then developed by incubating with HRP substrate solution (100 µL/well; 1 mg/mL o-phenylenediamine dihydrochloride and 0.02% w/v H_2O_2) in citric acid buffer (50 mM citric acid, 50 mM Na_2HPO_4, pH 5.0). Following an appropriate incubation time, HRP activity was measured spectrophotometrically at 450 nm using a microtiter plate reader (Bio-Tek).

[4] = target: T1, prostate-specific membrane antigen …; experiment: phage-based wrapping ELISA, PSMA dimer coated (FIG. 3A)
Description: as §3, with “The plate was then developed by incubating with HRP substrate solution (100 µL/well; 1 mg/mL o-phenylenediamine dihydrochloride and 0.02% w/v H_2O_2) in citric acid buffer (50 mM citric acid, 50 mM Na_2HPO_4, pH 5.0).” left out
(§4) Phage-based wrapping ELISA: Phage (5 nM in 225 µL) and 2 µL of the purified cycloaddition reaction product, $KCS$-1/2 (308.7 µM) in water: acetonitrile (60:40), were mixed and serially diluted in PBT. […] Levels of phage binding were quantified as described above.

[5] = target: T2, bovine serum albumin; experiment: phage-wrapping ELISA on BSA, anti-M13-HRP detection
[6] = target: T3, PSMA on the surface of LNCaP cells (human, UniProt Q04609 1-750); experiment: cell-based phage ELISA on fixed LNCaP cells, anti-M13-HRP detection, HRP activity as fold change
T3 construct: whole, on cells; Cells were glutaraldehyde-fixed on the plate in the cell-based ELISA and in suspension in the sandwich ELISA; also called cell surface PSMA; PSMA on LNCaP cells

[7] = target: T4, prostate-specific membrane antigen (PSMA), monomeric form (UniProt Q04609 44-750, limits assumed); experiment: phage ELISA, PSMA monomer coated on the plate, [PSMA] = 11.1 nM, anti-M13-HRP detection
T4 construct: Purified protein coated on the ELISA plate; construct not described
Description: as §3

[8] = target: T1, prostate-specific membrane antigen …; experiment: electrochemical impedance of a virus-PEDOT film in PBF-Tween after exposure to PSMA, ΔR/Ro against frequency; concentration not given
[9] = target: T3, PSMA on the surface of LNCaP cells; experiment: cell-based phage ELISA on fixed LNCaP cells, anti-M13-HRP detection, HRP activity as fold change; remark: listed apart in the source
[10] = target: T1, prostate-specific membrane antigen …; experiment: phage ELISA, PSMA coated on the plate, [PSMA] = 13 nM, anti-M13-HRP detection
[11] = target: T2, bovine serum albumin; experiment: phage-wrapping ELISA on BSA, anti-M13-HRP detection; remark: listed apart in the source
[12] = target: T1, prostate-specific membrane antigen …; experiment: electrochemical impedance spectroscopy, virus-PEDOT film, PBF-TWEEN buffer (FIG. 4F)
[13] = target: T1, prostate-specific membrane antigen …; experiment: phage-based wrapping ELISA, PSMA dimer coated (FIG. 3C)
Description: as §3, with “The plate was then developed by incubating with HRP substrate solution (100 µL/well; 1 mg/mL o-phenylenediamine dihydrochloride and 0.02% w/v H_2O_2) in citric acid buffer (50 mM citric acid, 50 mM Na_2HPO_4, pH 5.0).” left out
as §4

[14] = target: T1, prostate-specific membrane antigen …; experiment: electrochemical impedance spectroscopy, virus-PEDOT film, Hill fit of ΔR/Ro against PSMA concentration; phage-2 wrapped with KCS-1
Description: as §1, §2

[15] = target: T5, transferrin receptor (UniProt P02786 89-760, limits assumed); experiment: electrochemical impedance of a virus-PEDOT film in PBF-Tween after exposure to TfR, ΔR/Ro against frequency; concentration not given
T5 construct: Alternative target used as specificity control in impedance sensing; also called TfR
T5 sequence (P02786 89-760 limits assumed): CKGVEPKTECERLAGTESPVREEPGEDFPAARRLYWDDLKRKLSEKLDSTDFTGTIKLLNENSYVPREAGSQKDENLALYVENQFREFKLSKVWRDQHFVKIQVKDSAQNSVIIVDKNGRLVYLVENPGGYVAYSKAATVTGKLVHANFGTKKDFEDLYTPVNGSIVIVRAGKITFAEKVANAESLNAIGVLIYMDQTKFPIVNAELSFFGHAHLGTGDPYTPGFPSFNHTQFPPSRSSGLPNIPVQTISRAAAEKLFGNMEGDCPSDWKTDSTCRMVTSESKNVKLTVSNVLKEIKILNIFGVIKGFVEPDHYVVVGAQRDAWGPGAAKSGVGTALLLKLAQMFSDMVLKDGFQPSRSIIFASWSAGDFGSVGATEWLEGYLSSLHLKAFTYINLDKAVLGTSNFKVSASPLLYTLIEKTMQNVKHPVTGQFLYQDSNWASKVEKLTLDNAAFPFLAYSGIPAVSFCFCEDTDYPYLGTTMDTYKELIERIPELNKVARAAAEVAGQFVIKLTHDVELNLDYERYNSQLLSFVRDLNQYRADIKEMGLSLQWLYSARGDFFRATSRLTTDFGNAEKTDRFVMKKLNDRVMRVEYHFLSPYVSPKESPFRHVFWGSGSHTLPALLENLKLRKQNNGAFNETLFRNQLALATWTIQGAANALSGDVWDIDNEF

T1 sequence (Q04609 44-750 limits assumed): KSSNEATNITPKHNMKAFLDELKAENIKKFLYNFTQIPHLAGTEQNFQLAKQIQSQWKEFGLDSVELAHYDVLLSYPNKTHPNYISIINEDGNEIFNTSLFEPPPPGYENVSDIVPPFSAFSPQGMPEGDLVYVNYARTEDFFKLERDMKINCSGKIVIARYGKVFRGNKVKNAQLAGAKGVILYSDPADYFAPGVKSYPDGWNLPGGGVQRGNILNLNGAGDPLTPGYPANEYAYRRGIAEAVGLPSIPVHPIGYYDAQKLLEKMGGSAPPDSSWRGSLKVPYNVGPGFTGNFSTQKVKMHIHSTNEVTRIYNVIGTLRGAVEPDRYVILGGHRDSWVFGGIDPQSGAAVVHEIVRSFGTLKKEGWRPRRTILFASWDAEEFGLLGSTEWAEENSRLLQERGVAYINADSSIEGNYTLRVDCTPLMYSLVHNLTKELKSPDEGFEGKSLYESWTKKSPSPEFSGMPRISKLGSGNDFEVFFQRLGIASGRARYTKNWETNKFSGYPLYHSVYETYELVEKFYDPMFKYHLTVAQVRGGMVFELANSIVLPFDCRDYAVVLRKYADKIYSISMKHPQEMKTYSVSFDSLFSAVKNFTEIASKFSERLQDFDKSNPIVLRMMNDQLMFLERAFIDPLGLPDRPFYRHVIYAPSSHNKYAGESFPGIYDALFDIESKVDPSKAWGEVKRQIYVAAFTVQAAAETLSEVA
T2 sequence (P02769 25-607 limits assumed): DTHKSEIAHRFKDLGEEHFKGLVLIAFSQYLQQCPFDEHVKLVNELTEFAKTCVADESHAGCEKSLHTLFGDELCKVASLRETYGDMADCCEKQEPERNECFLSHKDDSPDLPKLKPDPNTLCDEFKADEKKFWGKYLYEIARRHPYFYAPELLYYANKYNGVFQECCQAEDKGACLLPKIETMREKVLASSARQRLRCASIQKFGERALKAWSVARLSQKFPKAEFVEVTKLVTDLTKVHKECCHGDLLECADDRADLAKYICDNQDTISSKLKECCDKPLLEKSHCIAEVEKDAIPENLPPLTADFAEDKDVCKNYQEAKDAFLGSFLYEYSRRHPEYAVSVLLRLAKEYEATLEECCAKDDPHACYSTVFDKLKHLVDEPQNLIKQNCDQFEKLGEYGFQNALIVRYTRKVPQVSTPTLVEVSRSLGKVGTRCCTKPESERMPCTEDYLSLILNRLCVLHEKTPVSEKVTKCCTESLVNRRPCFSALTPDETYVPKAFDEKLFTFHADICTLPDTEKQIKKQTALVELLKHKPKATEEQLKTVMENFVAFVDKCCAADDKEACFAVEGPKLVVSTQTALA
T3 sequence (Q04609 whole entry): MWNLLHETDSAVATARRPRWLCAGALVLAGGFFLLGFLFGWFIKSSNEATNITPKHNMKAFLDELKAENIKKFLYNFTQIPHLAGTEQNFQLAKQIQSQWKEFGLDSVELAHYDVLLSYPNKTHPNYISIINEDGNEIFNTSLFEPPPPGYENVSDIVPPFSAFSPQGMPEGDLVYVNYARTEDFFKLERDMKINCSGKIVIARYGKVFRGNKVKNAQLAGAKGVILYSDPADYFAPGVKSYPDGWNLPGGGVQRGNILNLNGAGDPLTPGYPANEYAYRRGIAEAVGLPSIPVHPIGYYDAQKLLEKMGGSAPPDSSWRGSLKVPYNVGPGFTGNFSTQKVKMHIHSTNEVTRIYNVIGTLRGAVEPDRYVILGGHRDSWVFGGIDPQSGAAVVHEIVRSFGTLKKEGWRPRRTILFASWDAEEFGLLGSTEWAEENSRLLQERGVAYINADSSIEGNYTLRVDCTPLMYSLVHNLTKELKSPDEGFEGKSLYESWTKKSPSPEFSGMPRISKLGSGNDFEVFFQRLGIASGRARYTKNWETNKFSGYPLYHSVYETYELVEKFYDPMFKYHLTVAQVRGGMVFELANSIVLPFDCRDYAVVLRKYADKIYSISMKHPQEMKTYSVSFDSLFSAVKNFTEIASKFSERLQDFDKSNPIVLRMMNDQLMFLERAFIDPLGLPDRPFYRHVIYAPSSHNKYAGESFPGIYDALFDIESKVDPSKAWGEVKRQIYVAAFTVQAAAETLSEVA
T4 sequence (Q04609 44-750 limits assumed): as the sequence (Q04609 44-750 limits assumed) above

B1: phage-2 (M13 phage displaying PSMA ligand 2 as a fusion to P8) (peptide)
chain: SECVEVFQNSCDW
modifications: not fully specified; cysteine pairing not given here; also: displayed on M13 phage as fusion to P8 coat protein
notes: Whole M13 virion in the assay (free in ELISA, embedded in a PEDOT film for impedance sensing); also called peptide 2; peptide-2; not shown: M13 major coat protein P8, 50 amino acid residues; NCBI GI:402239556 named in an embodiment
- Kd [1]: 54 nM
- binding result [2]: no binding (tested: 5 nM)
- EC50 (read off the curve) [3]: ~0.008 nM

B2: phage-2 wrapped with KCS-2 (peptide)
chain: SECVEVFQNSCDW
peptide 1: Pent4ynoyl-KKKKKKKKKKKKKK-NH2
peptide 2: {Butanoyl(4-N3)}-KKKSECVEVFQNSCDW-NH2
modifications: not fully specified; cysteine pairing not given here; also: KCS-2 wrapper held on P8 coat electrostatically, triazole to a chain's N-terminus
notes: Whole M13 virion; the KCS-2 wrapper (K14 clicked to K3-ligand 2) is held on the P8 coat electrostatically, not covalently; also called Phage with chemically and genetically encoded ligands; not shown: M13 major coat protein P8, 50 amino acid residues; NCBI GI:402239556 named in an embodiment
- fold higher affinity than phage-2 without the ligand wrapper [4]: ~50 fold
- binding result [5]: no binding (tested: 5 nM)

B3: phage wrapped with P100NSP-2 (peptide)
peptide 1: SECVEVFQNSCDW
peptide 2: KKKKKKKKKKKKKKC
chain: AEGDDPAKAAFNSLQASATEYIGYAWAMVVVIVGATIGIKLFKKFTSKAS
modifications: Cys thiol joined to the maleimide of the PEG100 ligand; C-terminal carboxamide; N-terminal azide clicked to pentynoic acid, then HBTU-coupled non-specifically (carboxylates incl. side chains, Asp12 may be partly modified) to Mal-PEG100-NH2; C-terminal carboxamide
notes: mature; Whole M13 virion; K14-Cys held electrostatically on P8
- binding result [6]: binds

Binder: AEGDDPAKAAFNSLQASATEYIGYAWAMVVVIVGATIGIKLFKKFTSKAS (other, M13 bacteriophage, UniProt P69541 24-73, looked up, not fully specified, mature; also called control phage) [Stop-4 phage (phagemid packaged by helper phage, no ligand displayed)]
- binding result [7]: no binding (tested: last point just right of the 10 nM tick)
- binding result [8]: no binding

B4: phage wrapped with P100SP-2 (peptide)
peptide 1: SECVEVFQNSCDW
peptide 2: KKKKKKKKKKKKKKC
chain: AEGDDPAKAAFNSLQASATEYIGYAWAMVVVIVGATIGIKLFKKFTSKAS
modifications: Cys thiol joined to the maleimide of the PEG100 ligand; C-terminal carboxamide; N-terminal azide clicked to Mal-PEG100-alkyne (specific attachment); C-terminal carboxamide
notes: as for B3
- binding result [9]: binds

B5: phage wrapped with P100SP-P4-2 (peptide)
peptide 1: SECVEVFQNSCDW
peptide 2: KKKKKKKKKKKKKKC
chain: AEGDDPAKAAFNSLQASATEYIGYAWAMVVVIVGATIGIKLFKKFTSKAS
modifications: Cys thiol joined to the maleimide of the PEG100 ligand; C-terminal carboxamide; N-terminal azido-PEG4-carboxylic acid, clicked to Mal-PEG100-alkyne (specific attachment); C-terminal carboxamide
notes: as for B3
- binding result [9]: binds

B6: KO7 helper phage (other, M13 bacteriophage, UniProt P69541 24-73, looked up)
chain: AEGDDPAKAAFNSLQASATEYIGYAWAMVVVIVGATIGIKLFKKFTSKAS
notes: mature; Helper phage lacking a genetically encoded PSMA ligand; bought from GE Healthcare
- binding result [10]: no binding (tested: about 5 nM)

B7: phage wrapped with P100NSP-P4-2 (peptide)
peptide 1: SECVEVFQNSCDW
peptide 2: KKKKKKKKKKKKKKC
chain: AEGDDPAKAAFNSLQASATEYIGYAWAMVVVIVGATIGIKLFKKFTSKAS
modifications: Cys thiol joined to the maleimide of the PEG100 ligand; C-terminal carboxamide; N-terminal azido-PEG4-carboxylic acid, clicked to pentynoic acid, then HBTU-coupled non-specifically to Mal-PEG100-NH2; C-terminal carboxamide
notes: as for B3
- binding result [9]: binds

B8: phage-2 wrapped with a 1:1 (w/w) mixture of KCS-2 and KCS-1 (peptide)
chain: SECVEVFQNSCDW
peptide 1: Pent4ynoyl-KKKKKKKKKKKKKK-NH2
peptide 2: {Butanoyl(4-N3)}-KKKCALCEFLG-NH2
peptide 3: {Butanoyl(4-N3)}-KKKSECVEVFQNSCDW-NH2
modifications: cysteine pairing not given here; also: K14 chains clicked to ligand chains, triazole to a chain's N-terminus
notes: Whole M13 virion with both wrappers held electrostatically on the coat; also called 1:1 mixture of KCS-1 and KCS-2 wrapped on the surface of phage-2; not shown: M13 major coat protein P8, 50 amino acid residues; NCBI GI:402239556 named in an embodiment
- binding result [11]: no binding (tested: 5 nM)

B9: phage-2 wrapped with KCS-1 (peptide)
chain: SECVEVFQNSCDW
peptide 1: Pent4ynoyl-KKKKKKKKKKKKKK-NH2
peptide 2: {Butanoyl(4-N3)}-KKKCALCEFLG-NH2
modifications: not fully specified; cysteine pairing not given here; also: KCS-1 wrapper held on P8 coat electrostatically, triazole to a chain's N-terminus
notes: Whole M13 virion (free in ELISA, embedded in a PEDOT film for impedance sensing); the KCS-1 wrapper is held on the P8 coat electrostatically; also called Phage-2 film wrapped with KCS-1; not shown: M13 major coat protein P8, 50 amino acid residues; NCBI GI:402239556 named in an embodiment
- fold ΔR/Ro relative to films with unwrapped phage-2 [12]: 3 fold
- fold higher apparent affinity than phage-2 wrapped with KCS-2 [13]: 4 fold
- Kd [14]: 33 nM
- binding result [11]: no binding (tested: 5 nM)
- binding result [15]: no binding
